Reference: patent US20260209386A1 (MYTHIC THERAPEUTICS, published 2026)
Changes are numbered by the printed parent chain.

B1: MYT11117 (antibody, V domains shown)
VH: EVQLVESGGGLVQPGGSLRLSCTASGFSLSTYAMSWVRQAPGKGLEWVGMIYINHNTYYASWAKGRFTISRDTSKNTVYLQMNSLRAEDTAVYFCARDIGISYYIGVSLWGQGTLVTVSS
VL: EIVMTQSPSTLSASVGDRVIITCQASQSIGTRLSWYQQKPGKAPKLLIYGASKLATGVPSRFSGSGSGAEFTLTISSLQPDDFATYYCLGEYSYTTTDGIAFGQGTKLTVL
notes: MYT9412 HC variant
B2: MYT11103 (antibody, V domains shown)
VH: B1 VH with F27H, H55D
VL: B1 VL
notes: MYT9412 HC variant
B3: MYT11105 (antibody, V domains shown)
VH: B1 VH with L29H, H55D
VL: B1 VL
notes: MYT9412 HC variant
B4: MYT11106 (antibody, V domains shown)
VH: B1 VH with S30H, H55D
VL: B1 VL
notes: MYT9412 HC variant
B5: MYT11107 (antibody, V domains shown)
VH: B1 VH with T31H, H55D
VL: B1 VL
notes: MYT9412 HC variant
B6: MYT11108 (antibody, V domains shown)
VH: B1 VH with Y32H, H55D
VL: B1 VL
notes: MYT9412 HC variant
B7: MYT11115 (antibody, V domains shown)
VH: B1 VH with I53H, H55D
VL: B1 VL
notes: MYT9412 HC variant
B8: MYT11120 (antibody, V domains shown)
VH: B1 VH with H55D, Y58H
VL: B1 VL
notes: MYT9412 HC variant
B9: MYT10953 (antibody, V domains shown)
VH: EVQLVESGGGLVQPGGSLRLSCTASGFHLSSYAMGWVRQAPGKGLEWVGFINAGGNTYYANWAKGRFTISRDTSKNTVYLQMNSLRAEDTAVYFCARRYSRASGWYDLWGQGTLVTVSS
VL: EIVMTQSPSTLSASVGDRVIITCQASQSISSYLAWYQQKPGKAPKLLIYAASTLASGVPSRFSGSGSGAEFTLTISSLQPDDFATYYCQSYSYSSGIDYGDVFGQGTKLTVL
notes: MYT9359 HC variant; captured on anti-human Fc sensor
B10: MYT10954 (antibody, V domains shown)
VH: B9 VH with H28S, L29H
VL: B9 VL
notes: as for B9
B11: MYT10956 (antibody, V domains shown)
VH: B9 VH with H28S, S31H
VL: B9 VL
notes: as for B9
B12: MYT10965 (antibody, V domains shown)
VH: B9 VH with H28S, G54H
VL: B9 VL
notes: as for B9
B13: MYT10967 (antibody, V domains shown)
VH: B9 VH with H28S, N56H
VL: B9 VL
notes: as for B9
B14: MYT10968 (antibody, V domains shown)
VH: B9 VH with H28S, T57H
VL: B9 VL
notes: as for B9
B15: MYT10971 (antibody, V domains shown)
VH: B9 VH with H28S, A60H
VL: B9 VL
notes: as for B9
B16: MYT10972 (antibody, V domains shown)
VH: B9 VH with H28S, N61H
VL: B9 VL
notes: as for B9
B17: MYT10973 (antibody, V domains shown)
VH: B9 VH with H28S, W62H
VL: B9 VL
notes: as for B9
B18: MYT10975 (antibody, V domains shown)
VH: B9 VH with H28S, K64H
VL: B9 VL
notes: as for B9
B19: MYT10976 (antibody, V domains shown)
VH: B9 VH with H28S, G65H
VL: B9 VL
notes: as for B9
B20: MYT10977 (antibody, V domains shown)
VH: B9 VH with H28S, A96H
VL: B9 VL
notes: as for B9
B21: MYT10987 (antibody, V domains shown)
VH: B9 VH with H28S, Y106H
VL: B9 VL
notes: as for B9
B22: MYT10992 (antibody, V domains shown)
VH: B9 VH with H28S
VL: B9 VL with Q24H
notes: MYT9359 LC variant; captured on anti-human Fc sensor
B23: MYT10994 (antibody, V domains shown)
VH: B9 VH with H28S
VL: B9 VL with S26H
notes: as for B22
B24: MYT10995 (antibody, V domains shown)
VH: B9 VH with H28S
VL: B9 VL with Q27H
notes: as for B22
B25: MYT10996 (antibody, V domains shown)
VH: B9 VH with H28S
VL: B9 VL with S28H
notes: as for B22
B26: MYT11007 (antibody, V domains shown)
VH: B9 VH with H28S
VL: B9 VL with L54H
notes: as for B22
B27: MYT11008 (antibody, V domains shown)
VH: B9 VH with H28S
VL: B9 VL with A55H
notes: as for B22
B28: MYT11009 (antibody, V domains shown)
VH: B9 VH with H28S
VL: B9 VL with S56H
notes: as for B22
B29: MYT11015 (antibody, V domains shown)
VH: B9 VH with H28S
VL: B9 VL with S94H
notes: as for B22
B30: MYT11016 (antibody, V domains shown)
VH: B9 VH with H28S
VL: B9 VL with S95H
notes: as for B22
B31: MYT11019 (antibody, V domains shown)
VH: B9 VH with H28S
VL: B9 VL with D98H
notes: as for B22
B32: MYT11020 (antibody, V domains shown)
VH: B9 VH with H28S
VL: B9 VL with Y99H
notes: as for B22

What follows are binders tested against T1, Human PTK7 Protein, His Tag, Acro Biosystems (human, UniProt Q13308 31-704) (assay: BLI, anti-human Fc capture, 50 nM PTK7; 1 = pH dependent binding relative to parent).
T1 construct: Bought recombinant protein; also called CCK4; not shown: His tag
T1 sequence: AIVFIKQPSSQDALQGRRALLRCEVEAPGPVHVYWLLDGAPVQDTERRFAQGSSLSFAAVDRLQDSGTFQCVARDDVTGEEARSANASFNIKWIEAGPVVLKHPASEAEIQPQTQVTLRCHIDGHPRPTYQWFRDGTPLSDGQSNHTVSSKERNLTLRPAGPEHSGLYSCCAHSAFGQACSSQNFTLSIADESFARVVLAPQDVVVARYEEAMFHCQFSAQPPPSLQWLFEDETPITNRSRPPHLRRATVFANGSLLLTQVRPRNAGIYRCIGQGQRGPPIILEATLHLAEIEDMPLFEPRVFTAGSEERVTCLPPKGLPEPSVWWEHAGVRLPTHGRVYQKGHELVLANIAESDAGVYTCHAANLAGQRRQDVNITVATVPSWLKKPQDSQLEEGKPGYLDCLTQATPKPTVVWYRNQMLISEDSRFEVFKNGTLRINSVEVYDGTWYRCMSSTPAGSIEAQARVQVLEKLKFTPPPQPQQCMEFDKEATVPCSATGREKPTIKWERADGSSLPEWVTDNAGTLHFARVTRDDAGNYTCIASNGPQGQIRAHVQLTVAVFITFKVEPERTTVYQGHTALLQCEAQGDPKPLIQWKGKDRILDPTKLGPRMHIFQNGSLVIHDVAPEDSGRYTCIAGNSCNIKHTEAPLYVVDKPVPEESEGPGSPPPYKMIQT
B1: binds.
B2: binds.
B3: binds.
B4: binds.
B5: binds.
B6: binds.
B7: binds.
B8: binds.

These binders were tested against T2, Human PTK7 Protein, His Tag (Acro Biosystems) (human, UniProt Q13308 31-704) (assay: BLI (Octet), antibody on anti-human Fc sensor, 50 nM PTK7; 2 = substantially similar binding).
T2 construct: Bought His-tagged recombinant human PTK7; also called CCK4; Tyrosine-protein kinase-like 7
T2 sequence: T1 sequence
B9: binds.
B10: binds.
B11: binds.
B12: binds.
B13: binds.
B14: binds.
B15: binds.
B16: binds.
B17: binds.
B18: binds.
B19: binds.
B20: binds.
B21: binds.
B22: binds.
B23: binds.
B24: binds.
B25: binds.
B26: binds.
B27: binds.
B28: binds.
B29: binds.
B30: binds.
B31: binds.
B32: binds.
